Values quoted from earlier work, collected in article PMC11170211.

Tested on: Asp102
Test: NMR

alpha-lytic protease (not stated in the article (described only as bacterial); Lysobacter enzymogenes from outside knowledge)
pKa: below 1.5
